Data taken from IntAct's records for PubMed 22184064.

Cyclin-dependent kinase 16 (Homo sapiens), Q00536 S153A, sequence (Q00536 whole entry S153A): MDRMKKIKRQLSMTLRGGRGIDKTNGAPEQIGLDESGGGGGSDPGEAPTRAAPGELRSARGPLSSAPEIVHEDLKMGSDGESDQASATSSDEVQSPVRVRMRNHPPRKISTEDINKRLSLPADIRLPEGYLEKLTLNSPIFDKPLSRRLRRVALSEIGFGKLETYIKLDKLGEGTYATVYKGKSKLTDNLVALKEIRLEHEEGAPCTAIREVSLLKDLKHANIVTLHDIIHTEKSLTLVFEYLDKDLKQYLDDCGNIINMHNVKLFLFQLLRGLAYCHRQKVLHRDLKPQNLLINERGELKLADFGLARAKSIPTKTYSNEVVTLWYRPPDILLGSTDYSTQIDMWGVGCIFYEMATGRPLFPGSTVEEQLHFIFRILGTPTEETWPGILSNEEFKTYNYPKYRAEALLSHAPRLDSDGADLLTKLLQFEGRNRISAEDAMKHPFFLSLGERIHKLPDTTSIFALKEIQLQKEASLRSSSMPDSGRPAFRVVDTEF
Cyclin-dependent kinase 16 (Homo sapiens), Q00536 I209T, sequence (Q00536 whole entry I209T): as the sequence (Q00536 whole entry S153A) above, with A153S, I209T counted along it
Cyclin-dependent kinase 16 (Homo sapiens), Q00536 S153D, sequence (Q00536 whole entry S153D): as the sequence (Q00536 whole entry S153A) above, with A153D counted along it
Cyclin-dependent kinase 16 (Homo sapiens), Q00536 G158D, sequence (Q00536 whole entry G158D): as the sequence (Q00536 whole entry S153A) above, with A153S, G158D counted along it
Cyclin-dependent kinase 16 (Homo sapiens), Q00536 K216E, sequence (Q00536 whole entry K216E): as the sequence (Q00536 whole entry S153A) above, with A153S, K216E counted along it
Cyclin-dependent kinase 16 (Homo sapiens), Q00536 S119A, sequence (Q00536 whole entry S119A): as the sequence (Q00536 whole entry S153A) above, with S119A, A153S counted along it

The substances below were run against CCNY, Q8ND76-1.
CCNY, Q8ND76-1, sequence (Q8ND76 whole entry): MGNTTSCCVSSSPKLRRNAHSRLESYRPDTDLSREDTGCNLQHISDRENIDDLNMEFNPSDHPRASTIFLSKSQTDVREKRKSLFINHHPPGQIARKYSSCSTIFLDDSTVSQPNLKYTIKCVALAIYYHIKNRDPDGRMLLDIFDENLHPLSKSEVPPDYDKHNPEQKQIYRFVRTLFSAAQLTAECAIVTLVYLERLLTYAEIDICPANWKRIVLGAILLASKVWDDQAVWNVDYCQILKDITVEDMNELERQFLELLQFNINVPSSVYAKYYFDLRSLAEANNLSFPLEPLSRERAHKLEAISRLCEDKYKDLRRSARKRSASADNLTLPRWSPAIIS
For “Cyclin-dependent kinase 16 (Homo sapiens), Q00536 G158D”, the “effect of a mutation on the interaction” value was “disrupting interaction strength”. “Cyclin-dependent kinase 16 (Homo sapiens), Q00536 I209T” was tested, and the “effect of a mutation on the interaction” value was “disrupting interaction strength”. In the case of “Cyclin-dependent kinase 16 (Homo sapiens), Q00536 K216E”, the “effect of a mutation on the interaction” value is reported as “disrupting interaction strength”. For “Cyclin-dependent kinase 16 (Homo sapiens), Q00536 S119A”, the “effect of a mutation on the interaction” value was “disrupting interaction strength”. “Cyclin-dependent kinase 16 (Homo sapiens), Q00536 S153A” was tested, and the “effect of a mutation on the interaction” value was “increasing interaction strength”. “Cyclin-dependent kinase 16 (Homo sapiens), Q00536 S153D” was tested, and the “effect of a mutation on the interaction” value was “disrupting interaction strength”.
